# Experiment: yeast display, Sf9 membrane polyspecificity reagent, FACS + sequencing; frameworks hold sequencing errors
# Summary of the method: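 Nanobodies from a synthetic yeast display library (Saccharomyces cerevisiae BJ5465), induced 36–48 hours with galactose, were stained 1 hour at 4 °C with 10% biotinylated, detergent-solubilized Sf9 membrane reagent, enriched on streptavidin microbeads, then FACS-sorted. Anti-HA (expression) and streptavidin (reagent binding) fluorescence set low and high (top ~1%) gates. Polyreactivity labels come from the gate of origin. Genes were colony-PCR amplified, MiSeq 2 × 250 sequenced and filtered by CDR length.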
row,Sequence,polyreactivity (PSR sort gate)
1,QVQLVESGGGLVQAGGSLRLSCAASGSTFSKNTMGWYRKAPGKERELVAAITSGGSTYYADSVKGRFTISRDNAKNTVYLQMNSLKPEDTAVYYCAAGYELYYYIYKMDYWGQGTQVTVSS,high polyreactivity
2,QVQLVESGGGLVQAGGSLRLSCAASGSTFSKYAMGWYRQAPGKERELVAAISSRGGSTYYADSVKGRFTISRDNAKNTVYLQMNSLKPEDTAVYYCATYYVYKLYYWGQGTQVTVSS,high polyreactivity
3,QVQLVESGGGLVQAGGSLRLSCAASGSTFSKYFMGWYSQAPGKERELVAAISGGDRTYYADSVKGRFTISRDNAKNTVYLQMNSLKTEVTAVYDCAAEVLKTRWSYDYWGQGTQVTVSS,high polyreactivity
4,QVQLVESGGGLVQAGGSLRLSCAASGSTFSLYAMGWYRQAPGIERELVAAIRSSGSTKYADSVKGRFTISRDNAKNTVYLQINSLKPEETAVYYCAAVSVTRADGRSGYEYWGQGTQVTVSS,low polyreactivity
5,QVQLVESGGGLVQAGGSLRLSCAASGSTFSLYAMGWYRQAPGKERELVAAISSGGRTYYADSVKGRFTISRDNAKNTVYLQMNSLKPEVTAVYYCAVYVAYLYSYYYWGQGTQVTVSS,low polyreactivity
6,QVQLVESGGGLVQAGGSLRLSCAASGSTFSLYAMGWYRQAPGKERELVARISYTDGSTYYADSVKGRFTISRDNAKNTVYLPMNSLKPEDTAVYYCAADAWYSYTLEDSWGQGTQVTVSS,low polyreactivity
7,QVQLVESGGGLVQAGGSLRLSCAASGSTFSNYAMGWYRQAPGKDRELVAGIDWSGGSTYYADSVKGRFTISRDNAKNTVYLQMNSLKPEDTAVYYSAKRVWYHGRKLRGYYWGQGTQVTVSS,low polyreactivity
8,QVQLVESGGGLVQAGGSLRLSCAASGSTFSPNAMGWSRQAPGKERELVAAITYRGANTYYADSVKGRFTISRDNAKNTVYLQMNSLKPEDTAVYYCAAEYAYHHVGFGYWGQGTQVTVSS,low polyreactivity
9,QVQLVESGGGLVQAGGSLRLSCAASGSTFSPNAMGWYRQATGKERELVAAITYRGANTYYADSVKGRFTISRDNAMITVYFQLNSLKPEDTAVYYCAPEYAYHHVGFGYWRQGTQVTVSS,low polyreactivity
10,QVQLVESGGGLVQAGGSLRLSCAASGSTFSPYAMGWYRPAPGKERELVAAITSGGSTYYADSVKGRFTISRDNAKNTVYLQMNSLKPEDTAVYYCNVVYIRVRRYNYWGQGTQVTVSS,high polyreactivity
11,QVQLVESGGGLVQAGGSLRLSCAASGSTFSPYAMGWYRQAPGKERELVAAISYDGGSTYYADSVKGRFTISRDNAKNTVYLQMNSLKPDDTAGYYCAADYFRSYEGTYWVVASYYYWGQGTQVTVSS,low polyreactivity
12,QVQLVESGGGLVQAGGSLRLSCAASGSTFSPYAMGWYRQAPGKERELVAAITGSTGSTYYAESVKGRFTISRDNAKNTVYLQMNSLKPEDTAVYYCAAVSSNARHVSRRRGYYWGQGTQVTVSS,high polyreactivity
13,QVQLVESGGGLVQAGGSLRLSCAASGSTFSPYVMGWYRQAPGKERELVAAITSGGITNYADSVKGRFTISRDNAKNTVYLQMNSLKPEDTAVYYCNVDRYIRDSWGDYWGQGTQVTVSS,high polyreactivity
14,QVQLVESGGGLVQAGGSLRLSCAASGSTFSRNAMGWYRQAPGKERELVAAISRRGDTTYYADSVKGRFTISRDNAKNTVYLQMNSLKPEDTAVYYCNRLTIGSSSYDYWGQGTQVTVSS,high polyreactivity
15,QVQLVESGGGLVQAGGSLRLSCAASGSTFSRNVMAWYRQAPGKDRELVAAISRGGSTNYADSVKGRFTISRDNAKNTVYLQMNSLKPEDTAVYYCNAPRLGKFYYWGQGTQVTVSS,low polyreactivity
16,QVQLVESGGGLVQAGGSLRLSCAASGSTFSRYAMGWYRQAPGKDRELVAAINRSGGSTYYADSVKGRFTISRDNAKNTVYLQMNSLKPEDTAVYYCNKYTGYLHDYWGQGTQVTVSS,high polyreactivity
17,QVQLVESGGGLVQAGGSLRLSCAASGSTFSRYAMGWYRQAPGKERELVAAISSGDRTNYADSVKGRFTISRDNAKNTVYLQMNSLKPEDTAVYYCADDLFPIAGEYDYWGQGTQVTVSS,high polyreactivity
18,QVQLVESGGGLVQAGGSLRLSCAASGSTFSRYAMGWYRQAPGKERELVAAISWSGGSTYYADSVKGRFTISRDTAKNTVYLQMNSLKPEDTAVYYCAAYTYSFRANHDYWGQGTQVTVSS,high polyreactivity
19,QVQLVESGGGLVQAGGSLRLSCAASGSTFSRYAMGWYRQAPGKERELVAAITSNGGRTYYADSVKGRFTISRDNAKNTVYLQMNSLKPEDTAVYYCAAVYYTEYYWGQGTQVTVSS,high polyreactivity
20,QVQLVESGGGLVQAGGSLRLSCAASGSTFSSLIMGWYRQAPGKERELVAAISRSGGRTYYADSVKGRFTISRDNAKNTVYLQMNSLKPEDTAVYYCAAPWFRDTRGYSLYDYWGQGTQVTVSS,high polyreactivity
21,QVQLVESGGGLVQAGGSLRLSCAASGSTFSSNAMGWYRQAPGKERELVAAINRRGGTYYADSVKGRFTISRDNAKNTVYLQMNSLKPEDTAVYYCAAASPYHEYDYCGQGTQVTVSS,low polyreactivity

row,Sequence,polyreactivity (PSR sort gate)
1,QVQLVESGGGLVQAGGSLRLSCAASGSTFSSYAMGWYRPAPGKERELVARISSSGGRTSYADSVKGRFTISRDHAKNTVYLQMNSLKAEDTAVSYCAAEDQYYRYFFSYEYWGQGTQVTVSS,high polyreactivity
2,QVQLVESGGGLVQAGGSLRLSCAASGSTFSSYAMGWYRQAPGKEREFDAAINTDGGSTYYADSVKGRFTISRDNAKNTVYLQMNSLKPEDTAVYYCAARYYWPWYSSYDYWGQGTQVTVSS,low polyreactivity
3,QVQLVESGGGLVQAGGSLRLSCAASGSTFSSYAMGWYRQAPGKERELVAAINWSGTRTYYADSVKGRFTISRDNAKNTVYLQMNSLKPEDTAVYYCAAPGFGETADYDDWGQGTQVTVSS,low polyreactivity
4,QVQLVESGGGLVQAGGSLRLSCAASGSTFSSYVMGWYRQAPGKERELVAAISSIGGSTYYADSVKGRFTISRDNAKNTVYLQMNSLKPEDTAVYYCAAEPPGSTYEGGYWGQGTQVTVSS,low polyreactivity
5,QVQLVESGGGLVQAGGSLRLSCAASGSTFSTNAMGWYRQAPGKERELVASITRSGGSTYYADSVKGRFTISRDNAKNTVYLQMNSLKPEDTAVYYCNADGYYDYDYGYWGQGTQVTVSS,low polyreactivity
6,QVQLVESGGGLVQAGGSLRLSCAASGSTFSTYAMGWDRQAPGKERELVAAIRWSGGSTYYADSVKGRFTISRDNAKNTVYLQMNSLKPEDTAVYNCNAGASYFLVISQSRRDYWGQGTEVTVSS,low polyreactivity
7,QVQLVESGGGLVQAGGSLRLSCAASGSTFSTYAMGWYRPAPGKERELVAAISRRGTNTYYADSVKGRFTISRDNAKNTVYLQMNSLKPEDTAVYYCAARSRSLRVYNRVYEVNEMDYWGQGTQVTVSS,low polyreactivity
8,QVQLVESGGGLVQAGGSLRLSCAASGSTFSTYAMGWYRQAPGKERELVARITRGGSTNYADSVKGRFTISRDNAKNTVYLQMNSLKPEDTAVYYCAAGIRSGRKYDYWGQGTQVTVSS,low polyreactivity
9,QVQLVESGGGLVQAGGSLRLSCAASGSTFSTYAMGWYRQAPGKERELVASISGRGSSTDYADSVKGRFTISRDNAKNTVYLQMNSLKPEDTAVYYCNRRGYRTSTTYRRYNYWGQGTQVTVSS,high polyreactivity
10,QVQLVESGGGLVQAGGSLRLSCAASGSTFSTYTMGWYRQAPGKERELVASISGRGGRTYYADSVKGRFTISRDNAKNTVYLQMNSMKPEDTAVYYCAARYWTLPWYQRGDYWGQGTQVTVSS,high polyreactivity
11,QVQLVESGGGLVQAGGSLRLSCAASGSTFSVNAMGWYRQAPGKEREFVAAITYSGGSTYYADSVKGRFTISRDNAKNTVYLQMNSLKPEDTAVYYCNRDTRYYWKRYGYWGQGTQVTVSS,high polyreactivity
12,QVQLVESGGGLVQAGGSLRLSCAASGSTFSVYGMGWYRQAPGKERELVAINIIGGSTYYADSVKGRFTISRDNAKNTVYLQMNSLKPEDTAVYYCAADSFPSEFDYWGQGTQVTVSS,low polyreactivity
13,QVQLVESGGGLVQAGGSLRLSCAASGSTFSVYTMGWYRQAPGKERELVAAITRNGGSTSYADSVKGRFTISRDNAKNTVYLQMNSLKPEDTAVYYCAASYSYRGYLYGYWGQGTQVTVSS,high polyreactivity
14,QVQLVESGGGLVQAGGSLRLSCAASGSTFSWYAMGWYRQAPGKERELVASISFSGGDTSYADSVKGRFTISRDNAKNTVYLQMHSLKPEDSAVYYCGKEYKYETDTKFDYWGQGTQVTVSS,low polyreactivity
15,QVQLVESGGGLVQAGGSLRLSCAASGSTFSWYTMGWYRQAPGKERELVAAISWSGGRTYYADSVKGRFTISRDNAKNTVYLQMNSLKPEDTAVYYCAAYDYWYSLGVYQFYYWGQGTQVTVSS,low polyreactivity
16,QVQLVESGGGLVQAGGSLRLSCAASGSTFSWYTMGWYRQAPGKERELVAAITRDGSTYYADSVKGRFTISRDNAKNTVYLHMNSLKPEDTAVYYCAADLSYWRGGHSRNYWGQGTQVTVSS,low polyreactivity
17,QVQLVESGGGLVQAGGSLRLSCAASGSTFSWYVMGWYRQAPGKERELVAAISYRGGRTYYADSVKGRFTISRDNAKNTVYLQMNSLKPEDTAVYYCAARGVVDAGRTNRPYDYWGQGTQVTVSS,low polyreactivity
18,QVQLVESGGGLVQAGGSLRLSCAASGSTFSYNAMGWYRQAPGKERELVAAISWRGGRTYYADSVKGRFTISRDNAKNTVYLQMYSLKPEDTAVYYCAAAYAAYSRYRYDYWGQGTQVTVSS,high polyreactivity
19,QVQLVESGGGLVQAGGSLRLSCAASGSTFSYNAMGWYRQAPGKERELVAAITSSGSSTYYADSVKGRFTISRYNAKNTVYLQMNSLKPEDTAVYYCAATLYNTEDDYWGQGTQVTVSS,low polyreactivity
20,QVQLVESGGGLVQAGGSLRLSCAASGSTFSYNAMGWYRQAPGKERELVATITYSGGTTYYADSVKGRFTISRDNAKNTVYLQMNSLKPEDTAVYYCAALYSFSYLSTSFVVEDWYYYWGQGTQVTVSS,high polyreactivity

# From the nanobody polyreactivity screen of Harvey et al. (2022)
